The record followed here is patent publication US11779592B2, “Inhibition of NGLY1 for the treatment of cancer” (University of North Texas Health Science Center, priority 2017, dated 2023).

The test system of one data set is NGLY1. The data set can be described thus: NGLY1 expression in stable clones of melanoma cells (immunoblotting). The data set is classed as cell-based, human. The note with it: stable clones of MALME3M, UACC257 and SK-MEL-2 cells, 48-hour treatment of dox. An excerpt:
These NGLY1-targeting shRNA sequences and a scrambled (non-targeting) shRNA sequence were cloned into doxycycline (dox)-inducible, polycistronic green fluorescence protein (GFP)-shRNA expression constructs (a pZIP inducible lentiviral vector, TransOMIC). Stable clones have been generated with the shRNA expression constructs in multiple human melanoma cell lines, including MALME3M, UACC257, SK-MEL-2, and COLO829 melanoma cells. […] Similar knockdown effects were found in the stable clones of other melanoma cells with this particular NGLY1 shRNA sequence. […] Similar to human normal fibroblasts, normal melanocytes (FIG. 5D) and keratinocytes appeared to well tolerate NGLY1 knockdown and show no sign of increased cell death. In addition, SK-MEL-2, MALME3M cells that express inducible NGLY1 shRNA presented significant apoptosis, compared to their scrambled RNA-expressing counterparts. The expression of exogenous human NGLY1 in melanoma cells attenuated NGLY1-targeting shRNA-induced apoptosis (FIG. 5E).
(§1) The knockdown of NGLY1 expression in melanoma cells was achieved by the transduction of pZIP-TRE3GS lentiviral expression vectors that carry two independent shRNA sequences (Below; TransOMIC Technologies, Huntsville, AL). […] The expression of the shRNA sequences and an open reading frame of the ZsGreen reporter is driven by the TRE3GS doxycycline-inducible promoter. […]
In general terms: A western blot detects proteins with antibodies after separation by electrophoresis.

The next data set deals with UACC257 cells. The data set can be described thus: Cell morphology of UACC257 stable clones with dox-inducible shRNA. The format is cell-based, human. The note with it: 2 μM dox for 72 hours. The protocol: (FIG. 5A) The doxycycline (dox)-inducible pZIP-TRE3GS expression vector of non-targeting shRNA and NGLY1-targeting shRNA sequences. (FIG. 5B) The stable clones of UACC257 cells with dox-inducible shRNA. […] Cells with induced non-targeting (scramble)-shRNA maintain a morphology similar to the cells before dox induction. Cells were imaged after the treatment of 2 μM dox for 72 hours. BF: bright field. ZsGreen: green fluorescence protein. […] (FIG. 5E) The expression of human NGLY1-FLAG in SK-MEL-2 (SK) cells attenuates NGLY1-targeting shRNA-induced apoptosis. EV: empty vector, NGLY1-F: NGLY1-FLAG expression vector. […] All data were presented as mean±standard deviation (n=3, *P<0.05, […]). […] The cell viability curves of combinatorial treatment were plotted according to the doses of dox used in the treatment. Combination indexes were calculated using Calcusyn software. A combination index value <1 was considered synergistic. A combination index value <0.2 was considered highly synergistic. […]
as §1

The next data set has as its system HepG2 liver cancer cells. The data set can be described thus: Cell morphology of HepG2 cells with NGLY1 knockdown. The data set is classed as cell-based.
Data set [1] relates to U-251MG glioblastoma cells. The data set can be described thus: Cell morphology of U-251MG cells with NGLY1 knockdown. The format is cell-based.
The test system of the next data set is SK-MEL-2 tumors. The data set can be described thus: Xenograft tumor model with SK-MEL-2 cells carrying inducible shRNA. The format is in vivo, mice. An excerpt:
(FIG. 14A) A schematic illustration of animal study design to test the in vivo antitumor efficacy of NGLY1 suppression in melanoma. (FIG. 14B) The volume changes of xenograted SK-MEL-2 tumors with the induction of NT-shRNA (n=10) and NGLY1-shRNA645 (n=8) for 35 days. Tumors were harvested at the end of the study for Western blotting analysis. Bars: median tumor volumes at the indicated time points. […] (FIG. 14C) The expression of NGLY1, GADD153, IRF3, and GFP (ZsGreen) proteins in selected tumors was analyzed by Western blotting. (FIG. 14D) The enhanced expression of IL-29 in the tumor tissues with NGLY1 knockdown was detected by immunofluorescence staining.
Six-week-old female NOD.CB17-Prkdc^scid/J mice (The Jackson Laboratory, Bar Harbor, ME) were group-housed under conditions of constant photoperiod (12 hours light: 12 hours dark) with ad libitum access to sterilized food and water. Since the animal work in this study was completed using an animal study service provided by the translational core laboratory at the University of Maryland, Baltimore, all experimental procedures and protocols utilizing mice were approved by the Institutional Animal Care and Use Committee at the University of Maryland. […] Tumors were measured weekly using calipers and their volumes calculated using a standard formula: width^2×length×0.52. Body weights were measured weekly. […]

B1: NGLY1-shRNA645: NGLY1-targeting shRNA sequence (SEQ ID NO: 5), dox-inducible lentiviral vector; used in the xenograft study (nucleic acid)
DNA: CCGAGUUUCAAAUAACAAUCAAUAGUGAAGCCACAGAUGUAUUGAUUGUUAUUUGAAACUCGAU
With B1, the “expression of NGLY1” value in the data set on NGLY1 is “largely suppressed”. Moreover, the cell morphology entry in the data set on UACC257 cells was “morphological features of apoptosis”; in the data set on HepG2 liver cancer cells, “morphology of apoptosis”; in data set [1], “morphology of apoptosis”. The “tumors that showed regression at the end of the study” value in the data set with SK-MEL-2 tumors (after size increase during the initial 3-4 weeks of dox treatment) was “three out of eight”. In addition, the “growth of melanoma tumors” value in the data set with SK-MEL-2 tumors (dox-induced knockdown, 5 weeks) is listed as “impeded”.
